Substitutions are numbered along the chain they refer to. Names may count otherwise.

The data set deals with the molecule itself. Description: crystal structure.

B1: D402N nitroalkane oxidase (enzyme)
chain: MVDFKLSPSQLEARRHAQAFANTVLTKASAEYSTQKDQLSRFQATRPFYREAVRHGLIKAQVPIPLGGTMESLVHESIILEELFAVEPATSITIVATALGLMPVILCDSPSLQEKFLKPFISGEGEPLASLMHSEPNGTANWLQKGGPGLQTTARKVGNEWVISGEKLWPSNSGGWDYKGADLACVVCRVSDDPSKPQDPNVDPATQIAVLLVTRETIANNKKDAYQILGEPELAGHITTSGPHTRFTEFHVPHENLLCTPGLKAQGLVETAFAMSAALVGAMAIGTARAAFEEALVFAKSDTRGGSKHIIEHQSVADKLIDCKIRLETSRLLVWKAVTTLEDEALEWKVKLEMAMQTKIYTTDVAVECVIDAMKAVGMKSYAKDMSFPRLLNEVMCYPLFNGGNIGLRRRQMQRVMALEDYEPWAATYGSSKVDKSRL
Turning to B1, the “stoichiometry N” value turned out to be 4 subunits.

B2: S276A nitroalkane oxidase (enzyme)
chain: B1 chain with S276A, N402D
As for B2, the “stoichiometry N” value is 4 subunits.

As usually defined, the stoichiometry N is a count of units in the complex or per binding partner.

These data come from paper PMC2754721 (Biochemistry, 2009).
